These results are taken from patent US20220281969A1 (ANTLERA THERAPEUTICS, published 2022).

Assay [1] deals with T1, recombinant human LRP6-Fc chimera (human, UniProt O75581 20-1370).
T1 construct: extracellular domain; also called human LRP6 chimera; not shown: Fc part of the chimera
T1 sequence (looked up): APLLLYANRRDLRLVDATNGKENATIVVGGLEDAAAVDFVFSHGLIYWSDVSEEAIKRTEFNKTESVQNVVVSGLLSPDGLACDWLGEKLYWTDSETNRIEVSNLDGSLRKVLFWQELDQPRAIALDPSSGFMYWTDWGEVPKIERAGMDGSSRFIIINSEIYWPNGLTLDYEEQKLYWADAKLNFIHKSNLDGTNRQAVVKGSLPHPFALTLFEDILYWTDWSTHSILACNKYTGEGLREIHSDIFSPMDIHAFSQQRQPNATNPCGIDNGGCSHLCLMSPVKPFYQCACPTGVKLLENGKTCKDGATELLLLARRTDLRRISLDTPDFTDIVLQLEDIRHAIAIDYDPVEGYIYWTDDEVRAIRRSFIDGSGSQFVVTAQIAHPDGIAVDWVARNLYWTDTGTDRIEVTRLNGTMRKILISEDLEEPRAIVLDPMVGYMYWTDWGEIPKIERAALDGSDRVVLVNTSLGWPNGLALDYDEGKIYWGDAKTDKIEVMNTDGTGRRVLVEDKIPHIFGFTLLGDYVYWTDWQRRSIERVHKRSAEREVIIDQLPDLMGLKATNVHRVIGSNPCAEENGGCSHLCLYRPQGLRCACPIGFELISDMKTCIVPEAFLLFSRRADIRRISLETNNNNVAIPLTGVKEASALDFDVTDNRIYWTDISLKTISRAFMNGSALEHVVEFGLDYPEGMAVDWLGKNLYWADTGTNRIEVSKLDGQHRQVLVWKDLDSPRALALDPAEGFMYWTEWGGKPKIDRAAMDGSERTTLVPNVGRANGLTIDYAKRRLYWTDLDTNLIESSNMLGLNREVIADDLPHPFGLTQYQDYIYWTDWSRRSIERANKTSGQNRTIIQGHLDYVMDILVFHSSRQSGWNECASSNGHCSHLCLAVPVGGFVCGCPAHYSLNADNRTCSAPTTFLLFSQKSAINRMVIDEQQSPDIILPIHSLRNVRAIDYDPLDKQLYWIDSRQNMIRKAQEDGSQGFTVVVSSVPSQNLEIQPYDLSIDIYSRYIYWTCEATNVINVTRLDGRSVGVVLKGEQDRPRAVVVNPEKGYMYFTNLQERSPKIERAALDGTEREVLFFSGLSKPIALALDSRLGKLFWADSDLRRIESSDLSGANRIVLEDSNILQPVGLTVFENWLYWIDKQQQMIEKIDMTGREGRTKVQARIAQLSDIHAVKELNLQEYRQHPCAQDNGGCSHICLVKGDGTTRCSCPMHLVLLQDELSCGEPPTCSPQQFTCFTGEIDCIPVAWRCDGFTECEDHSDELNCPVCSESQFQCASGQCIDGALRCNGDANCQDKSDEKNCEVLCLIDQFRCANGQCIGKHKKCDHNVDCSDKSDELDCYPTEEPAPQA
The experiment in a line: multipoint competitive ELISA; human LRP6-Fc chimera titrated against OD450 of the IgG1; non-linear regression. The procedure: (§1) The full length IgG1s were purified and a single-point ELISA was done to determine the specificity of the antibodies. […] A multipoint competitive ELISA was used to determine the relative affinities of the antibodies to the recombinant antigen.
Table 3 reports the IC50 of LRP6 antibodies as determined by competitive ELISA. The log of the recombinant human LRP6-Fc chimera concentration (x-axis) was plotted against the OD450 reading of the antibody (y-axis). The IC50 was determined by non-linear regression analysis.

In assay [2] the target is full-length LRP6 receptor expressed on the surface of cell lines (UniProt O75581 20-1613, limits assumed). The experiment in a line: cell-based or functional assay.
The target in assay [3] is T2, recombinant mouse LRP5-His chimera (mouse, UniProt Q91VN0 31-1383).
T2 construct: extracellular domain; not shown: His tag
T2 sequence (looked up): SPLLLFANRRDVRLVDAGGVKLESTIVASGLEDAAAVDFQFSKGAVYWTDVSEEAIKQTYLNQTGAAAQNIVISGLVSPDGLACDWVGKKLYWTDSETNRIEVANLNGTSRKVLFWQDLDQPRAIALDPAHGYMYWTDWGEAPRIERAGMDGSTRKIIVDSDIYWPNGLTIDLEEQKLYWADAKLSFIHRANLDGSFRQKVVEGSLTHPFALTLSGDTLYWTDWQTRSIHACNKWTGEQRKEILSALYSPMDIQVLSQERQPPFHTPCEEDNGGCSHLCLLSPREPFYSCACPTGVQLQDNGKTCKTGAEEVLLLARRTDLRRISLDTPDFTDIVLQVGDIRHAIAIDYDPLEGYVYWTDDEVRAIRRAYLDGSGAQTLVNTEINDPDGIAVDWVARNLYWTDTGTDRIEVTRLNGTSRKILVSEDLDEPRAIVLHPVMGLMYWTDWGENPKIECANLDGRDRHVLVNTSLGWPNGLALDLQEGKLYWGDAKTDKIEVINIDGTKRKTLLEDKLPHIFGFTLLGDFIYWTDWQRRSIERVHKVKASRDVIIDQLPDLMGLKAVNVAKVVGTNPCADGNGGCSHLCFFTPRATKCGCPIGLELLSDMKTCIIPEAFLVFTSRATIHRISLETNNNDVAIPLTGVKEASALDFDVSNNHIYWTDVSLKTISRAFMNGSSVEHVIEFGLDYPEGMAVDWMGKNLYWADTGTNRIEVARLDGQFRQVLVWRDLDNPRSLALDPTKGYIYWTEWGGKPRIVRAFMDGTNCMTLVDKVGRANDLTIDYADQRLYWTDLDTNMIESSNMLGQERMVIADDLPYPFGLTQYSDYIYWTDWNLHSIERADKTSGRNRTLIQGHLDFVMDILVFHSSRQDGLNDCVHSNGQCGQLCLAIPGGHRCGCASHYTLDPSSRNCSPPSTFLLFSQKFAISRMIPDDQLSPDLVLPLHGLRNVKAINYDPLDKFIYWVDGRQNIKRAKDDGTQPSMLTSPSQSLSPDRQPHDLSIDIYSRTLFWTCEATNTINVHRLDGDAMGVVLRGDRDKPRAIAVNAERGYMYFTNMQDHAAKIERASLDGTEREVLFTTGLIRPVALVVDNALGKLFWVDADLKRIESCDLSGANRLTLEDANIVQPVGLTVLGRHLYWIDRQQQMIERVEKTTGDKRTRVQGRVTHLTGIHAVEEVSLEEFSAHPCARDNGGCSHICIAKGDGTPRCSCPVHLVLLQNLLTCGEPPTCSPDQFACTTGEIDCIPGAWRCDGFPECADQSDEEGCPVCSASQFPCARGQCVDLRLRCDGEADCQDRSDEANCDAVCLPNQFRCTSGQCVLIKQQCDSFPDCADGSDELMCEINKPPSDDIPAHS
The experiment in a line: single-point ELISA, IgG1 on coated antigen. As for the experimental part: FIGS. 1a and 1b show LRP six antibodies. (A) The amino acid sequences of the complementarity determining regions (CDR) of the heavy (H) and the light (L) chains are presented. The antibodies were grouped into unique epitopes as determined by competitive ELISAs. (B) Single-point ELISAs were performed on 96-well Maxisorb immune plates coated with the […] of mouse LRP5, mouse LRP6 and human LRP6 chimeras. The plates were incubated with the purified Fab or IgG1 at the concentrations indicated followed by incubation with horseradish peroxidase (HRP)-conjugated anti-kappa antibody. The wells were washed eight times followed by incubation with 3,3′,5,5′-tetramethylbenzidine/H₂O₂ peroxidase (TMB) substrate for 5-10 min. The reaction was stopped by adding one M H₃PO₄ and the absorbance was measured spectrometrically at 450 nm in a microtiter plate reader.
as §1

Numbering of substitutions follows the chain as printed.

B1: LRP6-A10 IgG1 antibody (antibody, V domains shown)
VH: EVQLVESGGGLVQPGGSLRLSCAASGFNISYSSIHWVRQAPGKGLEWVAYISSYYGYTYYADSVKGRFTISADTSKNTAYLQMNSLRAEDTAVYYCARAHYFPWAGAMDYWGQGTLVTVSS
VL: DIQMTQSPSSLSASVGDRVTITCRASQSVSSAVAWYQQKPGKAPKLLIYSASSLYSGVPSRFSGSRSGTDFTLTISSLQPEDFATYYCQQYSWGPFTFGQGTKVEIKR
notes: Tested as purified full length IgG1
Take B1: the 50% inhibitory concentration (IC50) in assay [1] is 6.29 nM. In addition, in assay [2], the “functional IC50, Wnt3aCM-stimulated TOPflash reporter activity (MDAMB231, U2OS, H23 cells)” value was less than 0.3 nM. Besides, the binding result in assay [3] is reported as “no binding”.

B2: LRP6-A10 Fab protein (Fab, V domains shown)
VH: B1 VH
VL: B1 VL
With B2, the “functional IC50, Wnt3aCM-stimulated TOPflash reporter activity (MDAMB231 cells)” value in assay [2] is less than 0.3 nM.

B3: LRP6-B6 IgG1 antibody (antibody, V domains shown)
VH: B1 VH with Y50S, S53P, A99S, H100S, A105F, G106S
VL: DIQMTQSPSSLSASVGDRVTITCRASQSVSSAVAWYQQKPGKAPKLLIYSASSLYSGVPSRFSGSRSGTDFTLTISSLQPEDFATYYCQQYYFLITFGQGTKVEIKR
notes: as for B1
For B3, the binding result in assay [3] is “no binding”.

B4: LRP6-G3 IgG1 antibody (antibody, V domains shown)
VH: EVQLVESGGGLVQPGGSLRLSCAASGFNISSYYIHWVRQAPGKGLEWVASIYSSYGYTSYADSVKGRFTISADTSKNTAYLQMNSLRAEDTAVYYCARTVRGSKKPYFSGWAMDYWGQGTLVTVSS
VL: B3 VL with F93W, L94P
notes: as for B1
B4: the half-inhibitory concentration (IC50) in assay [1] turned out to be 10.2 nM. Besides, the binding result in assay [3] is “no binding”.

B5: LRP6-G9 IgG1 antibody (antibody, V domains shown)
VH: B4 VH with S30Y, G56S
VL: B3 VL with F93W, L94P
notes: as for B1
Regarding B5, in assay [1], the IC50 amounted to 6.03 nM. Further, the binding result in assay [3] was “no binding”.

B6: LRP6-A1 IgG1 antibody (antibody, V domains shown)
VH: B4 VH with I29L, S31Y
VL: B3 VL with F93W, L94P
notes: Tested as purified full length IgG1; Synthetic antibody on a human framework, detected with anti-kappa antibody
On to B6, for which, in assay [1], the 50% inhibitory concentration (IC50) came out at 9.58 nM. For the same molecule, in assay [3], the binding result is reported as “no binding”.
